In the RNAGym collection of RNA variant scans (doi:10.7554/elife.80360):

B1: CPEB3 Ribozyme (parent)
chain: GGGGGCCACAGCAGAAGCGUUCACGUCGCGGCCCCUGUCAGAUUCUGGUGAAUCUGCGAAUUCUGCUGU

Variants of: B1
Assay: self-cleavage, relative activity (ratio to wild type); higher = more cleavage; co-transcriptional

Variant	self-cleavage
G3C G5U	0.00743
G3C G5A	0.0417
G3A G28U	0.104
G3A G28C	0.0675
G3A G28A	0.113
G3U U46C	0.105
G3U U46G	0.161
G3U G47C	0.177
G3U G47U	0.175
G3C C32A	0.0311
G3C C45A	0.0668
G3C C45U	0.121
G3A U26G	0.29
G3A U26A	0.187
G3U U69C	0.46
G3U U69A	0.301
G3U U69G	0.283
G3C C29G	0.0545
G3C U64C	0.0655
G3C U64A	0.0618
G3C A8G	0.0364
G3C A8U	0.123
G3C A8C	0.0756
G3C C12U	0.0982

Variant	self-cleavage
G3C C12A	0.0611
G3C A40G	0
G3C A40C	0.0512
G3C A40U	0.016
G3C U38G	0.0344
G3C U38A	0.1
G3U U62G	0.108
G3U U62A	0.0711
G3C A15C	0.0371
G3C A15G	0.113
G3C A42C	0.0214
G3C A42U	0.0888
G3C A51C	0.0422
G3C A51G	0.0762
G3U A16C	0.0591
G3U A16G	0.0682
G3U A16U	0.0502
G3U U44A	0.0987
G3U U44C	0.127
G3U U44G	0.115
G3A G65A	0.527
G3A G65U	0.285
G3C G4U	0.0461
G3C G4C	0.137

Variant	self-cleavage
G3C G4A	0.0691
G3A U62A	0.312
G3A U62G	0.392
G3A U62C	0.357
G3A G50A	0.645
G3C U61G	0.0927
G3U	0.195
G3C	0.147
G3U G19U	0.0853
G3U G19A	0.0413
G3U U67A	0.406
G3U G25C	0.0349
G3A U49G	0.392
G3A U49A	0.627
G3U A8G	0.0722
G3U A8C	0.146
G3U A8U	0.121
G3A G41A	0.222
G3A G41U	0.277
G3U G30C	0.0267
G3U G30U	0.0357
G3U G30A	0.0662
G3A G58U	0.701
G3C U46A	0.113

Variant	self-cleavage
G3C U46C	0.126
G3A G19C	0.0671
G3A G19U	0.092
G3C U49C	0.149
G3C U49G	0.039
G4A A13U	0.66
G4A A13C	0.588
G3C U69G	0.222
G3C U69C	0.495
G3U C6U	0.0423
G3U C6G	0.0291
G3A G30C	0.103
G3A G30A	0.181
G3A G48U	0.722
G3A G48A	0.69
G3C C27G	0.06
G3C C27U	0.0443
G3C U26G	0.0558
G3C U26C	0.0733
G3U U43C	0.0372
G3U U43A	0.0999
G3C C24G	0.0519
G3C C24U	0.0425
G3C G14C	0.0467

Variant	self-cleavage
G3C G14U	0.0909
G3C G14A	0.0364
G3C U53G	0.0664
G3C U53C	0.0464
G3C G11U	0.11
G3C G11A	0.0327
G3C G11C	0.0692
G3U G41A	0.0442
G3U G41U	0.0372
G3U G41C	0.0828
G4A A10G	0.868
G4A A10C	0.968
G3C C33U	0.0583
G3C C33A	0.0485
G3A U21G	0.129
G3A U21C	0.371
G3A U21A	0.455
G3C U43A	0.0425
G3C U43G	0.104
G3C U62C	0.0572
G3C U62G	0.0946
G3U A40G	0.0981
G3U A40U	0.0917
G3U U55C	0.104

Variant	self-cleavage
G3U G65C	0.0613
G3U G65A	0.171
G3U G28C	0.0382
G3U G28U	0.0309
G3U G17C	0.0675
G3U G17U	0.0304
G3C C66G	0.0391
G3C C66A	0.0406
G3C G30C	0.0279
G3C G30A	0.0737
G3U A13G	0.181
G3U A13U	0.105
G3U A13C	0.0166
G3A G25U	0.054
G3U G14C	0.0411
G3U G14U	0.0458
G3C U44A	0.0725
G3C U44G	0.054
G4A A15C	0.329
G4A A15U	0.455
G4A A15G	0.93
G3C C63A	0.0751
G3C G25U	0.047
G3C G25C	0.0602

Variant	self-cleavage
G3C G25A	0.0214
G3U C39G	0.0714
G3U C39U	0.043
G3U C39A	0.0589
G3U G68A	0.554
G3A G68A	0.852
G3A G68U	0.86
G3A G68C	0.764
G3C G58A	0.0258
G3C G58U	0.216
G3C G56U	0.033
G3U C54U	0.148
G3U C54A	0.0729
G3U C54G	0.0746
G3C U20A	0.0845
G3C U20G	0.0823
G3U A23G	0.0915
G3U G58A	0.0734
G3U G58C	0.0675
G3U G11C	0.0634
G3U U64G	0.138
G3U U64C	0.132
G3U U64A	0.128
G3U U53C	0.0626

Variant	self-cleavage
G3U U53A	0.112
G4A A16U	0.459
G4A A16G	0.737
G3C U36G	0.329
G3C U36C	0.0612
G3C U36A	0.0318
G3U G37C	0.035
G3U G37A	0.0344
G3U G37U	0.0515
G3U C29U	0.0459
G3U C63U	0.114
G3U C35A	0.0237
G3U C35G	0.0418
G3C C39U	0.0426
G3C C39G	0.0769
G3C A59C	0.0244
G3C A59G	0.0736
G3U A10U	0.424
G3U A10C	0.332
G3C C34G	0.783
G3C G37U	0.0466
G3C G37A	0.0325
G3C G37C	0.0266
G3A U55C	0.187

Variant	self-cleavage
G3A U55G	0.291
G3U C27G	0.0583
G3U C27U	0.0361
G3C U67G	0.219
G3C U67A	0.239
G3U U36G	0.135
G3U U36C	0.122
G3C A60C	0.0624
G3C A60G	0.0121
G3U C32U	0.0936
G3C G31C	0.0554
G3U G4A	0.0885
G3U G4C	0.0209
G3C C22G	0.0359
G3C C22U	0.0738
G3C C22A	0.0184
G3C C7G	0.0644
G3C C7U	0.102
G3C C7A	0.026
G3C C18G	0.0441
G3C C18A	0.058
G3C C18U	0.0442
G3C C35U	0.0352
G3C A52U	0.075

Variant	self-cleavage
G3C A52G	0.0775
G3C A52C	0.0723
G3U U21G	0.0385
G3U U21A	0.157
G3U U21C	0.0376
G3C C57G	0.0873
G3C C57A	0.0768
G3C C57U	0.015
G3U G50C	0.145
G3A U67C	0.819
G3A U67G	0.818
G3C G17A	0.0395
G3C G17C	0.0303
G3C G17U	0.0348
G3C A10C	0.175
G3C A10G	0.215
G3U U26C	0.107
G3U U26G	0.0677
G3U C34A	0.687
G3U C34U	0.381
G4A A8U	0.86
G4A A8C	0.897
G4A A8G	0.698
G3C A16U	0.0415

Variant	self-cleavage
G3C A16G	0.162
G3C A16C	0.0367
G3A U46G	0.688
G3A G47C	0.658
G3A G47U	0.682
G3U C22U	0.047
G3U C22G	0.0464
G3U C22A	0.051
G3A U53C	0.416
G3A U53G	0.284
G3A G37A	0.143
G3A G37U	0.0837
G3U C24A	0.0286
G3U C24G	0.0481
G3U C24U	0.0674
G3U C7A	0.0696
G3U C7U	0.0677
G3U U20A	0.0443
G3C A23C	0.0635
G3C A23G	0.0477
G3A U44C	0.474
G3A U44A	0.54
G3A U44G	0.331
G3C G28C	0.0181

Variant	self-cleavage
G3C G28A	0.0239
G3A U20A	0.0708
G3U C57U	0.0383
G3U C57A	0.0577
G3C U55G	0.0373
G3C U55A	0.0482
G3C U55C	0.0498
G3U C66U	0.151
G3U C66G	0.145
G3U A59C	0.0549
G3U A59U	0.0422
G3C G50A	0.0909
G3U U38G	0.0509
G3U U38C	0.0341
G3C C9G	0.166
G3C C9A	0.511
G3C G48C	0.105
G3C G48U	0.16
G3U G48A	0.245
G3U C9G	0.446
G3U A15G	0.141
G3U A15C	0.0817
G3U A15U	0.0782
G3C G65C	0.0156

Variant	self-cleavage
G3C G65U	0.0451
G3C C6G	0.0449
G3C C6U	0.0391
G3U A51C	0.105
G3U A51U	0.17
G3A U38G	0.113
G3A U61C	0.246
G3A U61A	0.269
G3U U49A	0.201
G3U U49C	0.176
G3U C45U	0.162
G3A U69A	0.847
G3A U69G	0.793
G3C U21G	0
G3C U21C	0.058
G3C U21A	0.072
G3A G31C	0.122
G3A G31A	0.224
G3U G56U	0.109
G3U G56C	0.0723
G3C G47C	0.136
G3C G47A	0.264
G3C G47U	0.0876
G3U C12A	0.0925

Variant	self-cleavage
G3U C33U	0.0906
G3U C33A	0.102
G3C A13U	0.0542
G3C A13C	0.0417
G3A G56U	0.467
G3A G56A	0.26
G3U G5A	0.0231
G3U G5C	0.0208
G3C C54G	0.0518
G3C G41A	0.0418
G3C G41U	0.0159
G3C G68A	0.4
G3C G68C	0.432
G3U U61A	0.0525
G3U U61C	0.0446
G3U A60G	0.0646
G3U A60C	0.0666
G3U A60U	0.0237
G3C G19C	0.0344
G3C G19A	0.0368
G3U G31A	0.074
G3U G31U	0.0468
